Where two headings read alike, the source gives them in different places.
Legend:
CCKBR (Homo sapiens) = CCKBR (Homo sapiens) (UniProt P32239); details: cited from earlier work
[1] = target: T1, CCKBR N-terminal peptide BR5-21 (human, UniProt P32239 5-21); assay: not stated in material; Kd assay buffer and method not given in material; SELEX peptide-bead incubation 60 min at 37 C
T1 chain: KLNRSVQGTGPGPGASL

CCKBR (Homo sapiens), sequence (P32239 whole entry): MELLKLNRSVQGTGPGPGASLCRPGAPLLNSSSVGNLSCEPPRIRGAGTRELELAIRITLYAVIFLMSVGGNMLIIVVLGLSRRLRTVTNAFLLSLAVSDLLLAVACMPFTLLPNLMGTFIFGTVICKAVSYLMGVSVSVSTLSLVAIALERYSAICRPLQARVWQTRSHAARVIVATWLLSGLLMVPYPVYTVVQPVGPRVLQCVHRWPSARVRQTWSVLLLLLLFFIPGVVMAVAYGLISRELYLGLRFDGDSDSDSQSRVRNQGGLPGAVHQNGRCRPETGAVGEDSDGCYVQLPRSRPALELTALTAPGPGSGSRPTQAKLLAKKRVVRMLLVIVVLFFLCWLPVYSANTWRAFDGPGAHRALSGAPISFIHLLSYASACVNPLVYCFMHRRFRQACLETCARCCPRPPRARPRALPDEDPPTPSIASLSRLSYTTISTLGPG

gastrin (from UniProt P01350)
Kd (CCKBR (Homo sapiens)): 1 nM

B1: AP1153 (66 nt) (ssDNA)
DNA: CATGGTGCAGGTGTGGCTGGGATTCATTTGCCGGTGCTGGTGCGTCCGCGGCCGCTAATCCTGTTC
Kd ([1]; Mfold-predicted folded structure): 0.0155 nM

CATGGTGCAGGTGTGGCTGGGATTCATTTGCCGGTGCTGGTGCGTCCGC (ssDNA) [AP1153 truncated (49 nt)]
Kd [1]: 0.206 nM

Source: PMC5312616, “A Cholecystokinin B Receptor-Specific DNA Aptamer for Targeting Pancreatic Ductal Adenocarcinoma”
